Measurements published in patent publication US20080166352A1 (Amgen, published 2008).
Numbering of substitutions follows the chain as printed.

T1: soluble recombinant human B7RP-1 (human, UniProt O75144 19-256, limits assumed)
T1 construct: also called hB7RP-1; soluble B7RP-1
T1 sequence (looked up): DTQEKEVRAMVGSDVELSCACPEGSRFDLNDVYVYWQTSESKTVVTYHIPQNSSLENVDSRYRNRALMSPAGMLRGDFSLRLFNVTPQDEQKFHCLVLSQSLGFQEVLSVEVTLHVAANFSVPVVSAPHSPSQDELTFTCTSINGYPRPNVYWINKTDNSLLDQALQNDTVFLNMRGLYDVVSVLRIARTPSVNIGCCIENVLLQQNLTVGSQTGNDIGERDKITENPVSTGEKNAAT

T2: human B7RP-1 Ig2 (IgC-like) domain fused to chicken avidin (human; chicken, UniProt O75144 120-246)
T2 construct: Order of the parts not certain ('N-terminal, in-frame fusions with chicken avidin'); also called Ig2 domain; membrane-proximal Ig2 domain; not shown: chicken avidin
T2 sequence: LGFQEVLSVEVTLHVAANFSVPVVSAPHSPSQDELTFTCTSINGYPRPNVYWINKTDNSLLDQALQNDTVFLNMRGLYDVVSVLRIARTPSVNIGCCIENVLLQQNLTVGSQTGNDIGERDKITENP

T3: human B7RP1-Fc fusion protein (human, UniProt O75144 19-256, limits assumed)
T3 construct: also called hB7RP-1-Fc; hB7RP1Fc; not shown: Fc part
T3 sequence (looked up): T1 sequence (looked up)

T4: full-length human B7RP-1 on cells (human, UniProt O75144 19-302)
T4 sequence (looked up): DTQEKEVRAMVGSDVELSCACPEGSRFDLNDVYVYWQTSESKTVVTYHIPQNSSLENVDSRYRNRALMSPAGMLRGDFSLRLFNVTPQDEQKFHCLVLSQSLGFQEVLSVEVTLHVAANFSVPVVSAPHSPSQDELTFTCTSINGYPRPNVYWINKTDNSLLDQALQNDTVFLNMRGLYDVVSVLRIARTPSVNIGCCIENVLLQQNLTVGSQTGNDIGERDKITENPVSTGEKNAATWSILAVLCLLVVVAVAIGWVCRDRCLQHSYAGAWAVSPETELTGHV

B1: anti-B7RP1 human monoclonal antibody 16H (antibody, V domains shown)
VH: EVQLVESGGGLVQPGGSLRLSCAGSGFTFSSYWMSWVRQAPGKGLEWVAYIKQDGNEKYYVDSVKGRFTISRDNAKKSLYLQMNSLRAEDTAVYYCAREGILWFGDLPTFWGQGILVTVSS
VL: DIQMTQSPSSLSASVGDRVTITCRASQGISNWLAWYQQKPEKAPKSLIYAASSLQSGVPSRFSGSGSGTDFTLTISSLQPEDFATYYCQQYDSYPRTFGQGTKVEIK
notes: Fluorescently labelled in the flow cytometry assays; also called 16H mAb; B7RP-1 16H
B2: anti-B7RP1 human monoclonal antibody 43H (antibody, V domains shown)
VH: EVQLVQSGGGLVHPGGSLRLSCAGSGFTFSSYAMHWVRQAPGKGLEWVSAIGAGGGTYYADSVKGRFTISRDNAKNSLYLQMNSLRAEDMAVYYCARVVVVVGFFDYWGQGTLVTVSS
VL: B1 VL with N31S, Y49F, D92N, R96Y, V104L
B3: anti-B7RP1 human monoclonal antibody 2H germline (antibody, V domains shown)
VH: B1 VH with G24A, N56S, K77N, E99D, L107I, F110Y, I115T
VL: B1 VL with A50T, D92N
B4: anti-B7RP1 human monoclonal antibody 2H (antibody, V domains shown)
VH: B1 VH with A23V, N56S, K77N, E99D, L107I, F110Y
VL: B1 VL with A50T, D92N
B5: anti-B7RP1 human monoclonal antibody 41H (antibody, V domains shown)
VH: B1 VH with G24A, N56S, K77N, E99D, F110Y, I115T
VL: B1 VL with N31S, D92N, S93T
B6: anti-B7RP1 human monoclonal antibody 16H germline (antibody, V domains shown)
VH: B1 VH with G24A, K77N, I115T
VL: B1 VL
B7: anti-B7RP1 human monoclonal antibody 15H (antibody, V domains shown)
VH: EVQLVQSGGGLVHPGGSLRLSCAGSGFTFSSYAMHWVRQAPGKGLEWVSAIGTGGGTYYADSVKGRFTISRDNAKNSLYLQMNSLRAEDMAMYYCAKSGVPLLWFGEFYWGQGTLVTVSS
VL: not shown
B8: ICOS-Fc fusion protein (Fc fusion, UniProt Q9Y6W8 21-140, looked up)
chain: EINGSANYEMFIFHNGGVQILCKYPDIVQQFKMQLLKGGQILCDLTKTKGSGNTVSIKSLKFCHSQLSNNSVSFFLYNLDHSHANYYFCNLSIFDPPPFKVTLTGGYLHIYESQLCCQLK
notes: Fluorescently labelled in the flow cytometry assays; also called ICOS reagent; not shown: Fc part
B9: anti-B7RP1 human monoclonal antibody 5D (antibody, V domains shown)
VH: QVQLVESGGGVVQPGRSLRLSCAASGFTFSSYGMHWVRQAPGKGLEWVAVIWYDGSKKYYADSVEGRFTISRDNSKNTLYLQMNSLRAEDTAVFYCARDLNIMVWGIFDYWGQGTLVTVSS
VL: EIVLTQSPATLSLSPGERATLSCRASQSVSSYLAWYQQKPGQAPRLLIYDASNRATGIPARFSGSGSGTDFTLTISSLEPEDFAVYYCQQRNNWPWTFGQGTKVEIK
notes: Fluorescently labelled in the flow cytometry assays; also called 5D mAb; B7RP-1 5D

How the values were obtained:
[1] = target: T1, soluble recombinant human B7RP-1; assay: Biacore mono column of Table 4 (same value as Table 3)
Method: (§1) A fixed concentration of mAb was then incubated with varying concentrations of B7RP-1 or B7RP1-Fc for at least eight hours at room temperature to allow them to reach equilibrium. The samples were then injected over the B7RP1-Fc surface, and the binding signal observed represented free antibody remaining in solution at equilibrium.

[2] = target: T2, human B7RP-1 Ig2 (IgC-like) domain …; assay: avidin fusion on biotin-coated beads, fluorescently labeled 16H, flow cytometry
Method: (§2) Expression vectors containing genes encoding these fusion proteins were individually transiently transfected into 293T cells and the conditioned media from these cell lines were used as the source of fusion protein. The avidin-tag was used to capture the B7R-1 fusion proteins from solution using a biotin-coated bead. Fusion proteins were incubated with either fluorescently-labeled 16H or 5D mAbs or a fluorescently-labeled ICOS-Fc fusion protein, and incubated with biotin-coated beads The beads were recovered and analyzed using flow cytometry on a Becton-Dickinson Bioscience FACScan (BD, Franklin Lakes, N.J.). […] Thus, the ICOS, 16H, and 5D binding regions on B7RP-1 were located in the Ig1 domain

[3] = target: T1, soluble recombinant human B7RP-1; assay: Biacore solution equilibrium: mAb pre-incubated with soluble B7RP-1, free mAb read on immobilized B7RP1-Fc
Method: as §1

[4] = target: T3, human B7RP1-Fc fusion protein; assay: Biacore Fc column of Table 4 (same value as Table 3)
Method: as §1

[5] = target: T4, full-length human B7RP-1 on cells; assay: cell-based or functional assay
[6] = target: T3, human B7RP1-Fc fusion protein; assay: cell-based or functional assay
[7] = target: T3, human B7RP1-Fc fusion protein; assay: Biacore solution equilibrium: mAb pre-incubated with B7RP1-Fc, free mAb read on immobilized B7RP1-Fc
Method: as §1

[8] = target: T1, soluble recombinant human B7RP-1; assay: KinExA, dual-curve fit at [Ab] 100 pM and 300 pM, hB7RP-1 titrated in solution
Method: (§3) Binding of 5D, 2H, and 2H germline antibodies was also tested using KinExA (kinetic exclusion assay) technology. In this assay, hB7RP-1 was coupled to agarose beads. The beads were used to create a bead column. Samples containing antibody at a fixed concentration, which were allowed to come to equilibrium with varying concentrations of hB7RP-1, were then passed over the bead column. Antibody not complexed with ligand bound to the coated beads.
(§4) A fluorescent tagged anti-human Fc secondary antibody was used to detect bound test antibody.

[9] = target: T2, human B7RP-1 Ig2 (IgC-like) domain …; assay: flow cytometry of biotin-coated beads capturing the avidin fusion protein, stained with fluorescently labelled antibody
[10] = target: T3, human B7RP1-Fc fusion protein; assay: Biacore Fc column of Table 4
[11] = target: T1, soluble recombinant human B7RP-1; assay: KinExA, hB7RP-1 on agarose beads, antibody equilibrated with hB7RP-1 in solution
Method: as §3, §4

[12] = target: T2, human B7RP-1 Ig2 (IgC-like) domain …; assay: avidin fusion on biotin-coated beads, fluorescently labeled ICOS-Fc, flow cytometry
Method: (§5) Experiments were conducted to identify the region on B7RP-1 to which the 16H/16Hg and 5D monoclonal antibodies bind. To do this a novel Fluorescence-Activated Cell Sorter (FACS) binding assay was developed. The human extracellular domain (ECD) of B7RP1 (SEQ ID NO: 66) as well as truncated forms of B7RP-1 containing either the Ig1 (IgV-like; SEQ ID NO: 67) or the Ig2 (IgC-like; SEQ ID NO: 68) were expressed as N-terminal, in-frame fusions with chicken avidin.
as §2

[13] = target: T2, human B7RP-1 Ig2 (IgC-like) domain …; assay: avidin fusion on biotin-coated beads, fluorescently labeled 5D, flow cytometry
Method: as §5, §2

Binder | Kd [1] [nM] | Kd [3] [nM] | Kd [4] [nM] | CHO (co-stimulation assay with hB7RP1 transfected CHO cells, T cell proliferation) EC50 [5] [nM] | Plate (co-stimulation assay, T cell proliferation) EC50 [6] [nM] | Kd [7] [nM] | Kd [8] [nM] | also measured
B1 | 1.9 | 1.9 | 0.027 | 0.276 | 0.053 | 0.027 | – | binding result [2]: no binding
B2 | – | – | – | – | 0.046 | – | – | –
B3 | – | – | – | – | – | – | 0.4 | –
B4 | – | – | – | 1.45 | 0.043 | – | 0.33 | binding result [9]: no binding; Kd [10]: 0.089 nM; fold difference in KD against 5D [11]: ~10 fold
B5 | – | – | – | – | 0.052 | – | – | –
B6 | 2.7 | 2.7 | 0.017 | 0.523 | 0.032 | 0.017 | – | –
B7 | – | – | – | – | 0.036 | – | – | –
B8 | – | – | – | 10.7 | – | – | – | Kd [10]: 1 nM; binding result [12]: no binding
B9 | 0.037 | 0.037 | 0.0016 | 1.46 | 0.055 | 0.0016 | 0.018 | binding result [13]: no binding
